# Source: patent publication US9549967B2, “Regulation of sodium channels by PLUNC proteins” (The University of North Carolina at Chapel Hill, priority 2009, dated 2017)
# Target: T1, ENaC containing the βS518C mutant (Rattus norvegicus, UniProt P37089+P37090+P37091, S518C)
# T1 construct: expressed in transfected cells; host or cells: Xenopus oocytes
# T1 sequence (P37089 1-698): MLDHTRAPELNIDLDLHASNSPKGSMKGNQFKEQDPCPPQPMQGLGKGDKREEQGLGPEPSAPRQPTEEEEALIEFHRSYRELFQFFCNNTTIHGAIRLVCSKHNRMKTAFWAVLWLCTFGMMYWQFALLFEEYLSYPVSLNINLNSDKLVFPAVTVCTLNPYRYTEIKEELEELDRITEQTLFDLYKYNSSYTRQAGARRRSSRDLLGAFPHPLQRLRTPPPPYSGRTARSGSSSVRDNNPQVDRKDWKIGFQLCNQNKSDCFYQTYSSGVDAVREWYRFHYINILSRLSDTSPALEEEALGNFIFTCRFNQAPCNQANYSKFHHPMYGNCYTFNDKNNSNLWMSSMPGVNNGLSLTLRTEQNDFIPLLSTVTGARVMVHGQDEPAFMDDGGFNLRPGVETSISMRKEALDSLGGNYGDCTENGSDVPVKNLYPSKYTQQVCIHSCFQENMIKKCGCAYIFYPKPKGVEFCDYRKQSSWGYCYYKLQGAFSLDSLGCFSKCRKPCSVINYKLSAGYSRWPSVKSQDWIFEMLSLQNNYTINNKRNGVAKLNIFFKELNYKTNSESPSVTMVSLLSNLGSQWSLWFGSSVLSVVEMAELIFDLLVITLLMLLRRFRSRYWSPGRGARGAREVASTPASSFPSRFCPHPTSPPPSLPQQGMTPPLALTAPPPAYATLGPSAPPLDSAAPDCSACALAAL
# T1 sequence (P37090 1-638 S518C): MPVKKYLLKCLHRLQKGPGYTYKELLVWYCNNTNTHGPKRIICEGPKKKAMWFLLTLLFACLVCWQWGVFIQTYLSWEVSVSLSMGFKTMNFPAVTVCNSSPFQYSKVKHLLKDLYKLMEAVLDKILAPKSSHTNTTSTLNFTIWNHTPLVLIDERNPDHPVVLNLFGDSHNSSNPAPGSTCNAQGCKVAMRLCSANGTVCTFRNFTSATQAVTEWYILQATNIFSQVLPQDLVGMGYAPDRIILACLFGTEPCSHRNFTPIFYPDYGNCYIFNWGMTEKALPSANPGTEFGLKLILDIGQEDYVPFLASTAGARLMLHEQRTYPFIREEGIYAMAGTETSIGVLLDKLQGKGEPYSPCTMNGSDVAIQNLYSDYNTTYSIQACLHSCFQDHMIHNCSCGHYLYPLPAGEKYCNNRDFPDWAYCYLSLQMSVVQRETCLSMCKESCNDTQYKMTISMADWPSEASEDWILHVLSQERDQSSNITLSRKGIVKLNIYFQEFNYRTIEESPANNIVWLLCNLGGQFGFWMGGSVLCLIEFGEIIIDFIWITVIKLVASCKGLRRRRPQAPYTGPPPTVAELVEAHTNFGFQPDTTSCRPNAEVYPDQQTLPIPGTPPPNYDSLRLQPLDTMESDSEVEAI
# T1 sequence (P37091 1-650): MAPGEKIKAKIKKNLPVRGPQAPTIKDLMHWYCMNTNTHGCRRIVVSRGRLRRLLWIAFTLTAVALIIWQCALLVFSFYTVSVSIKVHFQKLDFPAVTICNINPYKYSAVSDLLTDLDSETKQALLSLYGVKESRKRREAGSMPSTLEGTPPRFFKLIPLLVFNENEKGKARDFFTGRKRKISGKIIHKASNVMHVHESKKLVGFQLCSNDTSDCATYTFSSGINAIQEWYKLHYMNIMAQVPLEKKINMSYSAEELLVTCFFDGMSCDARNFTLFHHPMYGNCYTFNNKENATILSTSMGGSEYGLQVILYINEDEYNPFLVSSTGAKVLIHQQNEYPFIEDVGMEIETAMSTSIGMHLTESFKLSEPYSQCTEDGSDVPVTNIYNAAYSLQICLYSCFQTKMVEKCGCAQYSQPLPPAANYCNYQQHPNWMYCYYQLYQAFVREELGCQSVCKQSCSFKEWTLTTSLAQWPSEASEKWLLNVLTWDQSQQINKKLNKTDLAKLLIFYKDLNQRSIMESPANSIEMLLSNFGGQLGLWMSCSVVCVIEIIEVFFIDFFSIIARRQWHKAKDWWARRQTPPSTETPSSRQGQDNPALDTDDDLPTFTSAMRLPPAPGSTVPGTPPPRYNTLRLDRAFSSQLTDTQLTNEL
# Test: Oocyte current of ENaC containing the βS518C mutant with MTSET
# Format: cell-based
# Conditions: SPLUNC1 coexpression, n=6
# Protocol: Oocyte studies. Xenopus laevis oocytes were harvested and injected as described (Donaldson, et al., J. Biol. Chem. 277:8338 (2002)). Defolliculated healthy stage V-VI oocytes were injected with 0.3 ng of cRNA of each ENaC subunit. Injected oocytes were kept in modified Barth's saline (in mM: 88 NaCl, 1 KCl, 2.4 NaHCO3, 0.3 Ca(NO3)2, 0.41 CaCl2, 0.82 MgSO4, and 15 HEPES, adjusted to pH 7.35 with Tris). Oocytes were studied 24 hr after injection using the two electrode voltage clamp technique as previously described (Donaldson, et al., J. Biol. Chem. 277:8338 (2002)). Oocytes were clamped at a holding potential of […]. The change in amiloride-sensitive whole cell current as an indicator of ENaC activity was determined by subtracting the corresponding current value measured in the presence of 10 μM amiloride from that measured before the application of amiloride.
# The effect of SPLUNC1 on the number of ENaC channels in the plasma membrane was tested by expressing SPLUNC1 and αENaC in Xenopus oocytes. After surface biotinylation of αENaC, total lysate was prepared and lysate from 3-4 eggs was separated on a 10% gel.
molecule,measurement,value
"SPLUNC1: human SPLUNC1, 256 amino acid secreted PLUNC protein (SEQ ID NO:1); rSPLUNC1 = V5/6His-tagged protein purified from HEK293 media (protein, listed as Homo sapiens, V5/6His tag, rSPLUNC1 = V5/6His-tagged protein purified from HEK293 media) MFQTGGLIVFYGLLAQTMAQFGGLPVPLDQTLPLNVNPALPLSPTGLAGSLTNALSNGLLSGGLLGILENLPLLDILKPGGGTSGGLLGGLLGKVTSVIPGLNNIIDIKVTDPQLLELGLVQSPDGHRLYVTIPLGIKLQVNTPLVGASLLRLAVKLDITAEILAVRDKQERIHLVLGDCTHSPGSLQISLLDGLGPLPIQGLLDSLTGILNKVLPELVQGNVCPLVNEVLRGLDITLVHDIVNMLIHGLQFVIKV",overall current with MTSET,still reduced
